Drawing on patent US20150098989A1, this text covers % inhibition formation SNARE complex for 20 molecules.

Assay [1] addresses SNARE complex (VAMP, syntaxin, SNAP-25 bound to GST) (UniProt P60880). Kind of assay: ELISA of SNARE complex formation (SNAP-25-GST, syntaxin, immobilized VAMP); compound at 2.5 mM.
Assay [2] has the same target. Kind of assay: ELISA of SNARE complex formation (SNAP-25-GST, syntaxin, immobilized VAMP); compound at 0.5 mM.
The target of assay [3] is SNARE complex (VAMP, syntaxin, SNAP-25) (UniProt P60880). Kind of assay: SDS-PAGE of SNARE complex (VAMP, syntaxin, SNAP-25), image analysis; compound at 1 mM.
Assay [4] shares this target. Description: SDS-PAGE of SNARE complex (VAMP, syntaxin, SNAP-25), image analysis; compound at 5 mM.

Non-standard residues stand in square brackets, D forms with d. Met(O) = CS(=O)CC[C@H](N)C(=O)O

Sequence of SNARE complex (VAMP, syntaxin, SNAP-25 bound to GST) (P60880 whole entry, one chain of several): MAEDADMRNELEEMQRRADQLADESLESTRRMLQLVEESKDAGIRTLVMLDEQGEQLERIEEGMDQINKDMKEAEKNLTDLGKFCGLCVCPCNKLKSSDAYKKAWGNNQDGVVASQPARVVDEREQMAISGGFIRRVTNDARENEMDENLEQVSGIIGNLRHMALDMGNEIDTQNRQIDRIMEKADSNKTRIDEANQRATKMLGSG
Sequence of SNARE complex (VAMP, syntaxin, SNAP-25) (P60880 whole entry, one chain of several): as above

B1: Ac-SEQ ID NO: 13-NH2 (peptide)
peptide: Ac-RHFLQWM-NH2
B1 showed a % inhibition formation SNARE complex in assay [1] of 20%.

B2: Ac-SEQ ID NO: 27-NH2 (peptide)
peptide: Ac-QHLKNWM-NH2
B2 displayed a % inhibition formation SNARE complex in assay [1] of 14%.

B3: Ac-SEQ ID NO: 31-NH2 (peptide)
peptide: Ac-NHLKNWM-NH2
Consider B3, for which the values for the % inhibition formation SNARE complex in assay [2] and in assay [1] were 26% and 59%, respectively.

B4: Ac-SEQ ID NO: 24-NH2 (peptide)
peptide: Ac-DHFQQRM-NH2
Regarding B4, the % inhibition formation SNARE complex in assay [3] amounted to 48%; in assay [4] it was 100%; in assay [2], 41%; in assay [1] it was 55%.

B5: Ac-SEQ ID NO: 2-NH2 (peptide)
peptide: Ac-QDFLHWM-NH2
Consider B5, for which the % inhibition formation SNARE complex in assay [3] was 37%; in assay [4], 80%; in assay [2], 26%; in assay [1] it was 64%.

B6: Ac-SEQ ID NO: 30-NH2 (peptide)
peptide: Ac-EHFLQWM-NH2
Regarding B6, the values for the % inhibition formation SNARE complex in assay [2] and in assay [1] were 24% and 71%, respectively.

B7: Ac-SEQ ID NO: 1-NH2 (peptide)
peptide: Ac-EHLKQWM-NH2
Take B7: the % inhibition formation SNARE complex in assay [3] stood at 59%; in assay [4], 100%; in assay [2] it was 33%; in assay [1], 63%.

B8: Ac-SEQ ID NO: 32-NH2 (peptide)
peptide: Ac-NHLKHWM-NH2
Turning to B8, the % inhibition formation SNARE complex in assay [1] was 19%.

B9: Ac-SEQ ID NO: 34-NH2 (peptide)
peptide: Ac-DHFLNWM-NH2
As for B9, the % inhibition formation SNARE complex was 14% in assay [3], 59% in assay [4], 27% in assay [2] and 85% in assay [1].

B10: Ac-SEQ ID NO: 15-NH2 (peptide)
peptide: Ac-NHFLNWM-NH2
Regarding B10, the % inhibition formation SNARE complex turned out to be 50% in assay [3], 100% in assay [4], 48% in assay [2] and 42% in assay [1].

B11: Ac-SEQ ID NO: 23-NH2 (peptide)
peptide: Ac-NDLKDWM-NH2
Take B11: the % inhibition formation SNARE complex in assay [2] was found to be 10%; in assay [1], 60%.

B12: Ac-SEQ ID NO: 117-NH2 (peptide)
peptide: Ac-ENLKRWM-NH2
As to B12, the % inhibition formation SNARE complex in assay [1] is 65%.

B13: Ac-SEQ ID NO: 8-NH2 (peptide)
peptide: Ac-EHLKKWM-NH2
As for B13, the % inhibition formation SNARE complex in assay [2] was found to be 11%; in assay [1], 44%.

B14: Ac-SEQ ID NO: 12-NH2 (peptide)
peptide: Ac-QHLKEWM-NH2
For the molecule B14, the figures for the % inhibition formation SNARE complex in assay [2] and in assay [1] were 20% and 71%, respectively.

B15: Ac-SEQ ID NO: 56-NH2 (peptide)
peptide: Ac-DHFLDW[Met(O)]-NH2
Consider B15, for which the % inhibition formation SNARE complex in assay [2] is 9%.

B16: Ac-SEQ ID NO: 22-NH2 (peptide)
peptide: Ac-DHLKKWM-NH2
Regarding B16, the % inhibition formation SNARE complex in assay [2] came to 18%; in assay [1] it was 72%.

B17: Ac-SEQ ID NO: 116-NH2 (peptide)
peptide: Ac-EELKRWM-NH2
The molecule B17 came in with a % inhibition formation SNARE complex in assay [1] of 69%.

B18: Ac-SEQ ID NO: 3-NH2 (peptide)
peptide: Ac-QHLHNVM-NH2
For B18, the % inhibition formation SNARE complex in assay [2] is 31%; in assay [1] it was 64%.

B19: Ac-SEQ ID NO: 25-NH2 (peptide)
peptide: Ac-DHFLDWM-NH2
As to B19, the % inhibition formation SNARE complex in assay [3] was 83%; in assay [4], 100%; in assay [2], 40%; in assay [1] it was 71%.

B20: Ac-SEQ ID NO: 14-NH2 (peptide)
peptide: Ac-EDLKRWM-NH2
For B20, the % inhibition formation SNARE complex in assay [3] was 83%; in assay [4], 100%; in assay [2], 43%; in assay [1], 67%.
